Residue numbers refer to the chain shown, from its start.
B1: NMES1, endogenous, in human breast cancer cells (BoM-1833) (ligand, UniProt Q9C002 1-83, looked up)
chain: MSFFQLLMKRKELIPLVVFMTVAAGGASSFAVYSLWKTDVILDRKKNPEPWETVDPTVPQKLITINQQWKPIEELQNVQRVTK
notes: Endogenous protein of the cells used for co-IP and for the cell assays; also called C15orf48
B2: NMES-7 anti-NMES1 monoclonal antibody (antibody, IgG1, V domains shown)
VH: EVQLVQSGAEVKKPGASVKVSCKASGYTFNRDAISWVRQAPGQGLEWMGWISGYNGNTYYAHKVLGRATMTTDTSTNTAYMELRSLTSDDTAMYYCARVGLQPDTTMDHWGQGTLVTVSS
VL: DIQMTQSPSSLSASVGDRVTITCRASQDIRNDLAWYQQKPGKAPKLLIYTASSLQTGVPSRFSGSGSGTDFTLSISSLQPEDFATYYCLQDYKYPLTFGGGTKLEIK
notes: also called NM-7; NMES1-7
B3: NMES-4 anti-NMES1 monoclonal antibody (antibody, IgG1, V domains shown)
VH: EVQLVQSGGEVKKPGSSVKVSCKASGGTFSTYAISWVRQAPGQGLEWMGGIIPIFGTTNYAQKFQGRVTITADRSTSTAYMELSSLRSEDTAVYYCARVSELGDYYAMDVWGQGTTVTVSS
VL: DIQMTQSPSSLSASVGDRVTITCRASQGIASALAWYQQKPGKAPKLLIYDASNLESGVPSRFSGSGSGTDFTLTISSLQPEDFATYYCQQAHSFPLTFGGGTKLEIK
notes: also called NM-4; NMES1-4
B4: NMES-5 anti-NMES1 monoclonal antibody (antibody, IgG1, V domains shown)
VH: QVQLVQSGAEVKKPGASVKVSCKASGYTFTSYGISWVRQAPGQGLEWMGWISAYNGNTNYAQKLQGRVTMTTDTSTSTAYMELRSLRSDDTAVYYCARATRGNAFDIWGQGTMVSVSS
VL: QSALTQPASVSGSPGQSITISCTGTSSDVGAYNYVSWYQQHPGKAPKLMIYDVSNRPSGVSNRFSGSKSGNTASLTISGLQAEDEADYYCSSYTRSTTVVFGGGTKVTVL
notes: also called NM-5; NMES1-5
B5: NMES-6 anti-NMES1 monoclonal antibody (antibody, IgG1, V domains shown)
VH: B4 VH with T100V, R101G, G102Q, N103L, I107Y, M113L, S115T
VL: QSALNQPPSASGSPGQSVTISCTGTSSDVGGYNYVSWYQQHPGKAPKLMIYEVSKRPSGVPDRFSGSKSGNTASLTVSGLQAEDEADYYCSSYAGSNNLVFGGGTKVTVL
notes: also called NM-6; NMES1-6
B6: NMES-10 anti-NMES1 monoclonal antibody (antibody, IgG1, V domains shown)
VH: B4 VH with R101F, M113T, S115T
VL: QSALTQPASVSGSPGQSITISCTGTSSDVGGYNYVSWYQQHPGKAPKLMIYDVSNRPSGVSNRFSGSKSGNTASLTISGLQAEDEADYYCSSYTSSSTLVVFGGGTKVTVL
notes: also called NM-10; NMES1-10
B7: NMES-3 anti-NMES1 monoclonal antibody (antibody, IgG1, V domains shown)
VH: EVQLLQSGGGVVRPGGSLRLSCAASGFTFDDYGMSWVRQAPGKGLEWVSGINWNGGSTGYADSVKGRFTISRDNAKNSLYLQMNSLRAEDTALYYCARASMVRGVYAFDIWGQGTMVIVSS
VL: DVQMTQSPSSLSASIGDRVTITCRASQSIGSYLNWYQQRPGKAPKLLIYSASSLQSGVPSRFSGSGSRSDFTLTIASLQPEDFATYYCQQSYSGPYTFGQGTKVDIK
notes: also called NM-3; NMES1-3
B8: NMES-1 anti-NMES1 monoclonal antibody (antibody, V domains shown)
VH: QVQLVQSGGGVVQPGRSLRLSCAASGFTFSSYAMHWVRQAPGKGLEWVAVISYDGSNKYYADSVKGRFTISRDNSKNTLYLQMNSLRAEDTAVYYCARLSRFGDESLKDPDYWGQGTLVTVSS
VL: DIVMTQSPLSLPVTLGQPASISCRSSQSLVHSDGNTYLNWFQQRPGQSPRRLIYKVSNRDSGVPDRFSGSGSGTDFTLKISRVEAEDVGVYYCMQGAHWPPTFGPGTKLEIK
notes: also called NM-1; NMES1-1

biological target: T1, transferrin receptor 1 (TFRC) (human, UniProt P02786 1-760); assay: co-IP with α-NMES1 from Ctrl 1833 cells, western blot for TFRC; strong TFRC band
T1 construct: Endogenous protein in cell or membrane extracts used for co-IP
T1 sequence (P02786 whole entry): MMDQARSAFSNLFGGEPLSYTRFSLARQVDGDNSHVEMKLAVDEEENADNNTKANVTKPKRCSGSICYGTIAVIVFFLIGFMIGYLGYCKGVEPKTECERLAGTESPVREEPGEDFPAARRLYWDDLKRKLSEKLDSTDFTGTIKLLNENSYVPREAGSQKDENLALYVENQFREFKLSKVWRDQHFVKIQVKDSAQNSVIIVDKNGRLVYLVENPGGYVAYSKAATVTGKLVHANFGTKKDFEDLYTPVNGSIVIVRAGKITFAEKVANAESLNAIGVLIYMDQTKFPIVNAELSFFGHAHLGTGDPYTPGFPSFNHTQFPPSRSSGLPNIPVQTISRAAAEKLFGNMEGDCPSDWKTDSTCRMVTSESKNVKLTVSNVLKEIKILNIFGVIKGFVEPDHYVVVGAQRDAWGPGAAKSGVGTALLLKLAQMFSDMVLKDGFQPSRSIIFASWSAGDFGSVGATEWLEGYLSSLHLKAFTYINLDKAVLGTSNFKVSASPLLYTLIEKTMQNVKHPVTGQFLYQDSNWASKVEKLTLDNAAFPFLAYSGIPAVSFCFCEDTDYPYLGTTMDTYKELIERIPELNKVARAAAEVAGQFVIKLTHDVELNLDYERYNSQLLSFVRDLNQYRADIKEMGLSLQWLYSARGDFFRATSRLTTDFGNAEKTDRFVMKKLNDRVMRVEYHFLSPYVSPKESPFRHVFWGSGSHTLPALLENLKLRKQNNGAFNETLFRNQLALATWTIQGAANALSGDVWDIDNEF

Row | Fold (IP/Input), TFRC | Binder
1 | 79.8 fold | B1

biological target: T2, recombinant human NMES1 protein (Normal Mucosa of Esophagus Specific 1) (human, UniProt Q9C002 1-83, limits assumed); assay: titration ELISA, plate coated with recombinant NMES1 (1 µg/mL), anti-human IgG Fc HRP detection
T2 construct: also called rhNMES1; recombinant NMES1 protein
Experimental: (§1) Binding constants (EC50) of a panel of monoclonal antibodies were estimated by titration ELISA and data is analyzed using the 4 parameter curve fitting with GraphPad Prism program (Table 5). […] All experiments were performed with shaking at 1,000 rpm. Background wavelength shifts were measured from reference biosensors that were loaded only with antibody with antigen. ForteBio's data analysis software was used to fit the data to a 1:1 binding model to extract an association rate and dissociation rate.
Anti-human IgG Fc HRP-conjugated antibody was diluted 1:5000 and added at a volume of 100 μl per well for incubation at 37° C. for 1 hour. The plates were washed 3 times with PBST (0.05% Tween-20) between incubation steps. TMB substrate was added 100 μl per well for color development and 2 M H2504 was added 50 μl per well to stop the reaction. The absorbance at 450 nm was read by SpectraMax microplate reader. For EC50 determination, data points were plotted by GraphPad Prism8. EC50 values were calculated using a three-parameter nonlinear model.

Row | EC50 | Binder
2 | 14.4 nM | B2
3 | 4.37 nM | B3
4 | 0.216 nM | B4
5 | 2.39 nM | B5
6 | 306 nM | B6
7 | 40.6 nM | B7
8 | 2.98 nM | B8

biological target: T1, transferrin receptor 1 (TFRC); assay: co-IP with α-NMES1 from NMES1-KD 1833 cells, western blot for TFRC; weaker TFRC band, number is normalised to the lower input

Row | Fold (IP/Input), TFRC | Binder
9 | 74.9 fold | B1

biological target: T2, recombinant human NMES1 protein (Normal …); assay: BLI (Octet), antibody on protein A biosensors, recombinant NMES1 0-900 nM, 1:1 fit
Experimental: as §1

Row | Kd | koff | kon | Binder
10 | 39.8 nM | 0.00595 s⁻¹ | 150000 M⁻¹ s⁻¹ | B2
11 | 17.1 nM | 0.00382 s⁻¹ | 223000 M⁻¹ s⁻¹ | B3
12 | 27.9 nM | 0.00463 s⁻¹ | 166000 M⁻¹ s⁻¹ | B4
13 | 19.5 nM | 0.00441 s⁻¹ | 227000 M⁻¹ s⁻¹ | B5
14 | 89.9 nM | 0.0131 s⁻¹ | 146000 M⁻¹ s⁻¹ | B6
15 | 56 nM | 0.00301 s⁻¹ | 53800 M⁻¹ s⁻¹ | B7
16 | 15.5 nM | 0.00499 s⁻¹ | 323000 M⁻¹ s⁻¹ | B8

— patent US20210371508A1 (University of Texas, published 2021)
